From patent US20230134571A1 (INTERNATIONAL AIDS VACCINE INITIATIVE, published 2023) come the findings set out here.

What all share (test): cell-based or functional assay
Assay [1] deals with HIV Env, isolate AC10.0.29 (HIV).
The target in assay [2] is HIV Env, isolate CAAN5342.A2 (HIV).
Assay [3] addresses HIV Env, isolate SC422661.8 (HIV).
Assay [4] deals with HIV Env, isolate Ce704809221_1B3 (HIV).
Assay [5] concerns the target HIV Env, isolate Du172.17 (HIV).
Assay [6] concerns the target HIV Env, isolate HIV-16055-2.3 (HIV).
Assay [7] addresses HIV Env, isolate HIV-16845-2.22 (HIV).
In assay [8] the target is HIV Env, isolate ZM214M.PL15 (HIV).
The target of assay [9] is HIV Env, isolate ZM233M.PB6 (HIV).
Assay [10] deals with HIV Env, isolate X1193_C1 (HIV).
The target of assay [11] is HIV Env of isolate ZM249M.PL1 (clade C) (HIV).
The target of assay [12] is HIV Env of isolate A07412M1.vrc12 (clade D) (HIV).
Assay [13] has as its target HIV Env of isolate P1981_C5_3 (clade G) (HIV).
For assay [14], the target named is HIV Env of isolate X1254_C3 (clade G) (HIV).
Assay [15] addresses HIV Env of isolate Q769.d22 (clade A) (HIV).
Assay [16] addresses HIV Env of isolate Q842.d12 (clade A) (HIV).
In assay [17] the target is HIV Env of isolate 6041.v3.c23 (clade AC) (HIV).
The target of assay [18] is HIV Env of isolate 6540.v4.c1 (clade AC) (HIV).
Assay [19] addresses HIV Env of isolate 6545.v4.c1 (clade AC) (HIV).
The target in assay [20] is HIV Env of isolate BJOX015000.11.5 (clade AE) (HIV).
Assay [21] concerns the target HIV Env of isolate BJOX025000.01.1 (clade AE) (HIV).
The target of assay [22] is HIV Env of isolate BJOX028000.10.3 (clade AE) (HIV).
The target in assay [23] is HIV Env of isolate CNE5 (clade AE) (HIV).
Assay [24] concerns the target HIV Env of isolate T263-8 (clade AG) (HIV).
In assay [25] the target is HIV Env of isolate 0260.v5.c36 (clade A) (HIV).
For assay [26], the target named is HIV Env of isolate AC10.0.29 (clade B) (HIV).
Assay [27] addresses HIV Env of isolate CAAN5342.A2 (clade B) (HIV).
Assay [28] has as its target HIV Env of isolate REJO4541.67 (clade B) (HIV).
Assay [29] addresses HIV Env of isolate TRJO4551.58 (clade B) (HIV).
Assay [30] concerns the target HIV Env of isolate CNE19 (clade BC) (HIV).
The target in assay [31] is HIV Env of isolate CNE20 (clade BC) (HIV).
Assay [32] addresses HIV Env of isolate 191084B7-19 (clade A) (HIV).
Assay [33] addresses HIV Env of isolate 246FC1G (clade C) (HIV).
Assay [34] has as its target HIV Env of isolate CAP210.2.00.E8 (clade C) (HIV).
Assay [35] deals with HIV Env of isolate 191955_A11 (clade A) (HIV).
For assay [36], the target named is HIV Env of isolate Ce0393_C3 (clade C) (HIV).
The target in assay [37] is HIV Env of isolate Ce2060_G9 (clade C) (HIV).
Assay [38] addresses HIV Env of isolate 9004SS_A3_4 (clade A) (HIV).
Assay [39] addresses HIV Env of isolate HIV-001428-2.42 (clade C) (HIV).
Assay [40] addresses HIV Env of isolate ZM214M.PL15 (clade C) (HIV).

Where a chain is given by its changes, count along the chain named. Bounds are passed on as bounds.

B1: ePGDM9 (antibody, V domains shown)
VH: QAQLVQSGPEVRKPGTSVKVSCKNPGNTLTTYDLHWVRQVPGQGLQWMGWISHEGDKKVIVERFKAKVTIDWDRSTNTAYLQLSGLTSEDTAVYYCAKGSKHRLRDYALYDEDGALNWAVDVDYLANLEFWGQGTAVTVSS
VL: DIVLTQSPLSLSVTPGESASISCKSSQSLIHGDRNNYLAWYVQKPGRSPQLLIDLASERASGVPDRFSGSGSRKDFTLKISRVETEDVGTYYCMQGRESPWTFGQGTKVDIK
For the molecule B1, the “IC80 (µg/ml) with constrains” value turned out to be 0.298 µg/mL in [1]; 70.1 µg/mL in [2]; 5.33 µg/mL in [3]; 0.539 µg/mL in [4]; 3.46 µg/mL in [5]; 0.006 µg/mL in [6]. Further, the “IC80 (µg/ml) with constrains” value in assay [7] is > 100 µg/mL; in [8], > 100 µg/mL; in assay [9], 0.007 µg/mL; in assay [10] it was 0.158 µg/mL.

B2: PGDM1400 (antibody, V domains shown)
VH: B1 VH with A2V, Q3H, V5T, N24A, T30K, Q39S, E89G, E112D, A126S
VL: B1 VL with I2F, L9H, Q27H, D54Y, E58S, R73D
On to B2, for which the “IC50 (µg/ml) with constrains” value in assay [11] is 0.025 µg/mL; in assay [12] it was 0.029 µg/mL; in [13] it was 18.9 µg/mL; in [14], 45.4 µg/mL; in [15] it was 0.007 µg/mL; in assay [16], > 100 µg/mL. For the same molecule, the “IC50 (µg/ml) with constrains” value in assay [17] was 0.016 µg/mL; in assay [18] it was 0.007 µg/mL; in [19], 0.148 µg/mL; in [20] it was 1.05 µg/mL; in [21], 0.055 µg/mL; in [22] it was 0.121 µg/mL. The “IC50 (µg/ml) with constrains” value was 0.001 µg/mL in assay [23]; 0.02 µg/mL in assay [24]; 0.035 µg/mL in [25]; 0.549 µg/mL in assay [26]; > 100 µg/mL in assay [27]; 0.004 µg/mL in assay [28]. Besides, the “IC50 (µg/ml) with constrains” value in [29] is > 100 µg/mL; in assay [30], 0.005 µg/mL; in assay [31], 0.005 µg/mL; in [32], 0.002 µg/mL; in [33] it was > 100 µg/mL; in assay [34] it was 0.33 µg/mL. Further, the “IC50 (µg/ml) with constrains” value was 0.013 µg/mL in [35]; 0.009 µg/mL in assay [36]; 0.025 µg/mL in assay [37]; > 100 µg/mL in assay [38]; 0.014 µg/mL in assay [39]; > 100 µg/mL in assay [40]. The “IC80 (µg/ml) with constrains” value is 0.028 µg/mL in assay [15]; > 100 µg/mL in assay [16]; 0.064 µg/mL in assay [17]; 0.026 µg/mL in assay [18]; 0.594 µg/mL in [19]; 4.21 µg/mL in assay [20]. For the same molecule, the “IC80 (µg/ml) with constrains” value in assay [21] stood at 0.22 µg/mL; in assay [22], 0.483 µg/mL; in [23], 0.003 µg/mL; in assay [25], 0.14 µg/mL; in assay [32] it was 0.008 µg/mL; in assay [35], 0.05 µg/mL. Besides, in assay [38], the “IC80 (µg/ml) with constrains” value was > 100 µg/mL.

B3: PGDM1400 (antibody, V domains shown)
VH: B1 VH with A2V, Q3H, V5T, N24A, T30K, Q39S, E89G, E112D, A126S
VL: B1 VL with I2F, L9H, Q27H, D54Y, E58S, R73D
Turning to B3, the “IC80 (µg/ml) with constrains” value in assay [1] is 2.19 µg/mL; in assay [2] it was > 100 µg/mL; in assay [3], 62.8 µg/mL; in assay [4], 1.28 µg/mL; in [5], 21.7 µg/mL; in [6], 0.013 µg/mL. Besides, the “IC80 (µg/ml) with constrains” value was > 100 µg/mL in assay [7], > 100 µg/mL in assay [8], 0.007 µg/mL in [9] and 0.374 µg/mL in assay [10].

B4: ePGDM5 (antibody, V domains shown)
VH: B1 VH
VL: B1 VL with I2F, S26D, Q27H, I30Q, S81D, T85A
Consider B4, for which the “IC80 (µg/ml) with constrains” value in [1] was 1.1 µg/mL; in assay [2], > 100 µg/mL; in [3], 5.33 µg/mL; in assay [4] it was 0.749 µg/mL; in assay [5], 5.98 µg/mL; in assay [6], 0.007 µg/mL. Further, the “IC80 (µg/ml) with constrains” value in assay [7] is > 100 µg/mL; in assay [8] it was > 100 µg/mL; in [9] it was 0.007 µg/mL; in assay [10] it was 0.156 µg/mL.

B5: ePGDM13 (antibody, V domains shown)
VH: B1 VH
VL: B1 VL with Q27H, I30Q, I53L, R73E
In the case of B5, the “IC80 (µg/ml) with constrains” value in [1] was 0.776 µg/mL; in assay [2] it was > 100 µg/mL; in [3] it was 6.26 µg/mL; in assay [4] it was 1.36 µg/mL; in assay [5], 6 µg/mL; in assay [6], 0.011 µg/mL. Also, the “IC80 (µg/ml) with constrains” value was > 100 µg/mL in [7], > 100 µg/mL in [8], 0.006 µg/mL in [9] and 0.381 µg/mL in assay [10].
